Reference: paper PMC5704914 (Biochemistry, 2017)

Target: apo-calmodulin (UniProt P0DP23 1-149)
Test: fluorescence polarisation

Binder | Kd
fluorescein-labeled α11.2 IQ domain peptide AAs 1644-1668, I1654A (fluorescein covalently linked to the N-terminal amino group) peptide: not shown | 141 µM
fluorescein-labeled α11.2 IQ domain peptide AAs 1644-1668, Y1649A (fluorescein covalently linked to the N-terminal amino group) peptide: not shown | 61.9 µM
fluorescein-labeled α11.2 IQ domain peptide AAs 1644-1668, K1647A (fluorescein covalently linked to the N-terminal amino group) peptide: not shown | 44.2 µM

The next binders have a lower Kd than those just listed; values first:

Kd | Binder
32.4 µM | fluorescein-labeled α11.2 IQ domain peptide AAs 1644-1668, F1648A (fluorescein covalently linked to the N-terminal amino group) peptide: not shown
22.3 µM | fluorescein-labeled α11.2 IQ domain peptide AAs 1644-1668, Q1655A (fluorescein covalently linked to the N-terminal amino group) peptide: not shown
